# Test results taken from patent US20230391843A1, “COMPOSITION AND METHOD FOR CONTROLLING HEAT GENERATION WITHIN ORGANISM, AND USE” (GUANGDONG JIANTEBO BIOTECHNOLOGY CO., LTD., priority 2021, published 2023).
# Entries after “also recorded” stand apart in the source; their conditions may differ.
# B1: IL-27: Recombinant mouse IL-27 (EBI-3/p28 heterodimer cytokine), purchased from Biolegend (577408) (protein, UniProt O35228 19-228; Q8K3I6 29-234, looked up)
# Interleukin-27 subunit beta: YTETALVALSQPRVQCHASRYPVAVDCSWTPLQAPNSTRSTSFIATYRLGVATQQQSQPCLQRSPQASRCTIPDVHLFSTVPYMLNVTAVHPGGASSSLLAFVAERIIKPDPPEGVRLRTAGQRLQVLWHPPASWPFPDIFSLKYRLRYRRRGASHFRQVGPIEATTFTLRNSKPHAKYCIQVSAQDLTDYGKPSDWSLPGQVESAPHKP
# Interleukin-27 subunit alpha: FPTDPLSLQELRREFTVSLYLARKLLSEVQGYVHSFAESRLPGVNLDLLPLGYHLPNVSLTFQAWHHLSDSERLCFLATTLRPFPAMLGGLGTQGTWTSSEREQLWAMRLDLRDLHRHLRFQVLAAGFKCSKEEEDKEEEEEEEEEEKKLPLGALGGPNQVSSQVSWPQLLYTYQLLHSLELVLSRAVRDLLLLSLPRRPGSAWDS
# How the values were obtained:
# primary beige adipocytes = primary beige adipocytes treated with IL-27 in vitro, immunoblot analysis; type: cell-based, mouse; conditions: rmIL-27 100 ng/ml
# Protocol: A whole cell lysate or tissue lysate was extracted using an RIPA lysis buffer (Beyotime, China) supplemented with a complete protease inhibitor (Roche) and a phosphatase inhibitor Cocktail 2 (P5726, Sigma), and a supernatant was used for subsequent analysis. Proteins were diluted in a Loading dye (BL502A, Bio-sharp), heated at 95° C. for 10 min, and separated on 4-12% polyacrylamide gel. The proteins were transferred to polyvinylidene fluoride membranes and western blot experiments were performed with the commercial antibodies and methods-reagents mentioned in the drawing.
# Inguinal subcutaneous adipose tissue was minced and digested at 37° C. for 45 min in PBS containing collagenase II (1 mg/ml), and a tissue suspension was filtered by a 100 μm cell filter and centrifuged at 600 g for 5 min, such that a stromal vascular fraction (SVF) was granulated. After granulation, the product was further filtered by a 40 μm cell filter and placed on a collagen-coated plate. After overnight culturing, a supernatant containing non-adherent cells was removed. Precursor adipocytes were grown in DMEM containing 10% FBS and insulin (5 μg/ml) for fusion. The product was treated for 2 days with dexamethasone (1 μM), 3-isobutyl-1-methylxanthine (IBMX, 0.5 mM), insulin (5 μg/ml), indomethacin (125 nM) and rosiglitazone (1 μM) to induce differentiation of the fused cells, and then independently treated for another 5 days with insulin (5 μg/ml) and triiodothyronine (T3, 1 nM). On day 7, the cells were pretreated overnight with and without IL-27 (100 ng/ml) and then treated with isoproterenol (10 μM) or forskolin (10 μM) for 4-6 hours. IL-27 (100 ng/ml) was added for treatment for 0-120 min on day 7 for protein phosphorylation analysis, or for 12-24 h for protein expression level detection. For signal inhibition experiments, either the STAT3 inhibitor (C188-9, 10 μM) or the p38 MAPK inhibitor (SB203580, 10 μM) was added to a medium 0.5 h prior to and during IL-27 treatment.
# FIG. 3A-FIG. 3M show promotion of heat generation by IL-27. As for FIG. 3A: primary beige adipocytes were generated in vitro from an SVF of WT SCW and then treated with rmIL-27 (100 ng/ml) or PBS for 24 hours. Cells were lysed and a protein extract was used for immunoblot analysis. As for FIG. 3B: immunoblot analysis of phosphorylation of the protein in the WT primary beige adipocyte extract treated with the rmIL-27 (100 ng/ml) for a specified time was shown. As for FIG. 3C: the primary beige adipocytes derived from WT SCW were generated in vitro. The STAT3 inhibitor (C188-9, 10 μM) or p38 MAPK inhibitor (SB203580, 10 μM) was added to a medium 0.5 hours prior to culturing and in duration of rmIL-27 treatment (100 ng/ml for 12 hours). Cell lysis and the representative immunoblot of the protein extract were shown. As for FIG. 3D-FIG. 3J: WT mice were fed with HFD for 32 weeks and then injected intraperitoneally. Every other day, rmIL-27 (100 μg/kg) or PBS was injected for 15 days. As for FIG. 3D: body weight was recorded at specified time points (n=8). As for FIG. 3E: after rmIL-27 treatment for 15 days, adipose tissue was collected and weighed (n=6-8) for a glucose tolerance test (FIG. 3F, n=8) and an insulin tolerance test (FIG. 3G, n=8). As for FIG. 3H: the mice were fasted overnight and then injected intraperitoneally with 0.75 U/kg insulin (15 min). Immunoblot analysis of pAKT (pSer473) in epididymal fat was performed. As for FIG. 3I: after rmIL-27 treatment for 15 days, oil-red O liver tissue staining was performed, with the scale=50 μm. As for FIG. 3J-FIG. 3M: UCP1-KO mice were fed with HFD for 20 weeks and then injected intraperitoneally with rmIL-27 (100 μg/kg) or PBS every other day for 15 days. As for FIG. 3J: body weight was recorded at specified time points (n=6). As for FIG. 3K: adipose tissue and livers were collected and weighed after rmIL-27 treatment for 15 days (n=6), and GTT (FIG. 3L, n=6) and ITT (FIG. 3M, n=4) tests were performed after rmIL-27 treatment for 15 days. […]
# EBI-3 KO mice = test: cold stimulation experiment at 4° C. after rmIL-27 treatment of EBI-3 KO mice; type: in vivo, mouse; conditions: rmIL-27 100 μg/kg intraperitoneally for 7 consecutive days, then cold stimulation at 4° C.
# Protocol: Cold stimulation experiments were performed in a temperature controlled cold room. Mice were placed individually in individual cages (without bedding) at 4° C. The mice had free access to food and water. Rectal core body temperatures were recorded every 2 hours using a digital thermometer and a rectal thermocouple probe (TH-212, HICHANCE, China). If the core body temperature fell below 20° C., the individual mice were euthanized and scored as events for survival analysis.
# 8-week-old WT mice were fed with HFD for 32 weeks and randomly divided into 2 groups. The mice were injected intraperitoneally with rmIL-27 (100 μg/kg) or PBS for 15 consecutive days, and then, metabolic analysis was performed. 12-month-old EBI-3 KO mice were randomly divided into 2 groups, and injected intraperitoneally with rmIL-27 (100 μg/kg) or PBS for 7 consecutive days. The mice were then subjected to a cold stimulation experiment at 4° C.
# As for FIG. 7A-FIG. 7C: 8-week-old Il27ra^f/f and Ucp1-Cre Il27ra^f/f mice were fed with HFD for 10 weeks. After HFD treatment for 10 weeks, GTT (FIG. 7A) and ITT (FIG. 7B) (n=5-6) tests were performed, and adipose tissue and livers were collected and weighed (FIG. 7C, n=5-6). […] Expression of UCP1 was detected by immunoblot. […] Expression of UCP1 or PPARα was analyzed by an immunoblot. […] A band density was quantified and normalized with ImageJ. […]
# [1] = 0-120 min, immunoblot (FIG. 3B)
molecule,measurement,setting,value
B1,Phosphorylation of p38 MAPK,primary beige adipocytes; [1],significantly increased
same,pSTAT3,primary beige adipocytes; [1],only transiently induced and rapidly regressed
same,expression of UCP1,"primary beige adipocytes; 24 hours, immunoblot (FIG. 3A)",significantly increased
same,expression of peroxisome proliferator-activated receptor α (PPARα),"primary beige adipocytes; 24 hours, immunoblot (FIG. 3A)",up-regulated
same,expression of peroxisome proliferator-activated receptor γ co-activator 1α (PGC-1α),"primary beige adipocytes; 24 hours, immunoblot (FIG. 3A)",up-regulated
same,activation of ATF2,primary beige adipocytes; immunoblot (FIG. 3A-3C),enhanced
same,UCP1-mediated heat generation,EBI-3 KO mice,improved
same,body temperature / hypothermia in cold stimulation,EBI-3 KO mice; rectal temperature,avoided low temperatures; also recorded: reverse hypothermia
